# Test results taken from patent publication EP0651783B1, “ALKALINE PHOSPHATASE ENZYME HAVING IMPROVED SPECIFIC ACTIVITY FOR USE IN INDICATOR REAGENTS” (ABBOTT LABORATORIES, priority 1992, dated 1994).
# System: O=[N+]([O-])c1ccc(OP(=O)(O)O)cc1
# Assay: Alkaline phosphatase kinetic constants (substrate hydrolysis)
# Format: biochemical, Escherichia coli
# Settings: other: Table 1; substrate not named, e.g. p-nitrophenyl phosphate
# Method: The analyses for specific activity and temperature stability were performed on highly purified protein material. In brief, the purification process involved the release of the periplasmic protein by the formation of spheroplasts, ammonium sulphate precipitation and chromatofocusing chromatography. […] Temperature stability was measured by monitoring the decay of enzyme activity at different temperatures.
substance,measurement,value
"E. coli alkaline phosphatase variant pMA116, Lys^328 > Arg / Val^99 > Ala (Escherichia coli K-12; K350R/V121A)",Km,74 µM
